# Source: patent publication US7807387B2, “Biological agent that causes IL-6 receptor release” (Meyer Pharmaceuticals LLC, priority 2003, dated 2010)
# B1: MP8: polypeptide having the sequence of SEQ. ID NO:41 (usually with a HIS tag); cytokine receptor releasing protein expressed in E. coli (protein, listed as Homo sapiens)
# chain: WIQRIRHEGNSTVYEWRTGTEPSVVERPHLEELPEQVAEDAIDWGDFGVEAVSEGTDSGISAEAAGIDWGIFPESDSKDPGGDGIDWGDDAVALQITVLEAGTQAPEGVARGPDALTLLEYTETRNQFLDELMELEIFLAQRAVELSEEADVLSVSQFQLAPAILQGQTKEKMVTMVSVLEDLIGKLTSLQLQHLFMILASPRYVDRVTEFLQQKLKQSQLLALKKELMVQKQQEALEEQAALEPKLDLLLEKTKELQKLIEADISKRYSGRPVNLMGTSL
# modifications: HIS tag
# notes: ID NO:41 (usually with a HIS tag); cytokine receptor releasing protein expressed in E. coli
# System: LPS-induced septic shock
# Assay: LPS/galactosamine-induced septic shock model
# Type: in vivo, Balb/c mice
# Method: A classic model for determining effectiveness of agents against cytokine-mediated inflammation is endotoxin-induced septic shock (Morrison et al., J Infect Dis 162:1063, 1990).
# The septic shock experiment was conducted as follows. Female Balb/c mice were randomized by weight into 6 treatment groups. Sepsis was induced by injecting 10 μg LPS and 7 mg galactosamine in the lateral or dorsal caudal vein. Some of the groups were pretreated with 50,000 FU of MP8 simultaneously or 3 hours in advance of the LPS challenge to determine whether there was a protective effect.
# FIG. 8 is a Kaplan-Meier survival curve, showing the mortality in each of the treatment groups in the study. Without any treatment or challenge, there is no effect on the animals, and the line stays at the top. Life-compromising challenge causes the line to fall to the bottom of the graph in a step-wise fashion as each animal succumbs. Treatment that is protective against the challenge maintains the line near the top of the graph.
# The enzyme was administered in a volume of 110 μL at one hour before the LPS challenge.
# Stability of the clinical effect of MP8 was determined in the septic shock model. Female Balb/c mice were injected with 300,000 FU of MP8 that had been stored for 4 days at −70° C., or 7 days at 4° C. One hour later, the mice were challenged with 10 μg LPS and 7 mg galactosamine as before.
# In this example, durability of receptor cleavage in vivo was determined by treating animals subcutaneously up to three days in advance with 300,000 FU of MP8. The mice were then challenged with […] LPS and 7 mg galactosamine in the usual fashion.
# Sepsis was induced in Balb/c mice by administering 10 μg LPS and […] galactosamine, as in Example 3. Randomized groups were pretreated with up to 40 μg MP8-FL2 one hours in advance of the LPS challenge.
molecule,measurement,setting,value
B1,protection against LPS-induced septic shock,"50,000 FU, simultaneously with LPS challenge or 3 hours in advance",fully protective
same,clinical efficacy in septic shock model after storage,"300,000 FU stored 4 days at −70° C. or 7 days at 4° C., one hour before challenge",can be frozen without causing a loss in clinical efficacy
same,protection against septic shock when administered days in advance,"300,000 FU subcutaneously up to three days in advance",able to protect most mice up to 3 days after administration
same,protection against LPS-induced septic shock,"300,000 FU, one hour before LPS challenge",completely protective
same,protection against LPS-induced septic shock,"single dose of 30,000 FU, one hour before LPS challenge",able to protect a proportion of the challenged subjects
